Experiment [1] addresses MUC5ac mucin (PAM4 antigen) from CaPan1 human pancreatic carcinoma (human) (UniProt P98088). Description: inhibition EIA on CPM1-coated plates; competitor hPAM4 at […].
Experiment [2] has the same target. The experiment is described as follows: sandwich EIA, hPAM4 capture of antigen from CPM1, MAb probe at 10 µg/mL (FIG. 26).
The target in experiment [3] is IMP-288 DOTA-di-HSG hapten-peptide. Description: 111In-IMP-288 with TF10, size exclusion chromatography (not shown). On the technique in general: In gel filtration, larger molecules generally elute earlier.
The target in experiment [4] is MUC5ac mucin (PAM4 antigen) from CaPan1 human pancreatic carcinoma (human) (UniProt P98088). The experiment is described as follows: size exclusion chromatography of TF10/111In-IMP-288 with excess mucin.
Experiment [5] has the same target. Description: ELISA on target mucin antigen (FIG. 9). For orientation: An ELISA detects its analyte on a solid surface through an enzyme-linked reagent.
For experiment [6] the target is unchanged. The experiment is described as follows: radiolabeled TF10 with MUC5ac, size exclusion chromatography (not shown).

As a reminder, the Kd is a measure of binding affinity in units of concentration. A high value points to weaker binding. For the substance 45M1 anti-MUC5ac MAb (antibody), the ICmax (maximal % inhibition) in experiment [1] came out at 25.5%. For the same substance, the Kd in experiment [2] came out at 14.3 µg/mL.

By EC50 is commonly meant the concentration at which the effect is half-maximal. A low value points to higher potency in that assay. In the case of “TF10 bispecific ([hPAM4]2 x h679) DNL construct (bispecific antibody)”, in experiment [3], the percent of peptide bound was found to be 90%. Moreover, the percent of TF10-bound 111In-IMP-288 shifted by mucin in experiment [4] came out at 92%. In addition, the EC50 in experiment [5] stood at 1.42 nM. The substance also registered an immunoreactive fraction bound in experiment [6] of 87%.

The record behind these values is US20140227179A1.
